The record followed here is patent publication CN117736312A (SHANGHAI BOVAX BIOLOGICAL SCIENCE & TECH CO LTD, dated 2024).

Holding throughout (test): sandwich ELISA (rabbit anti-L1 capture)
Assay [1] has as its target T1, HPV6L1 (human papillomavirus type 6, UniProt P69899 1-500).
T1 construct: also called HPV 6 L1原液
T1 sequence: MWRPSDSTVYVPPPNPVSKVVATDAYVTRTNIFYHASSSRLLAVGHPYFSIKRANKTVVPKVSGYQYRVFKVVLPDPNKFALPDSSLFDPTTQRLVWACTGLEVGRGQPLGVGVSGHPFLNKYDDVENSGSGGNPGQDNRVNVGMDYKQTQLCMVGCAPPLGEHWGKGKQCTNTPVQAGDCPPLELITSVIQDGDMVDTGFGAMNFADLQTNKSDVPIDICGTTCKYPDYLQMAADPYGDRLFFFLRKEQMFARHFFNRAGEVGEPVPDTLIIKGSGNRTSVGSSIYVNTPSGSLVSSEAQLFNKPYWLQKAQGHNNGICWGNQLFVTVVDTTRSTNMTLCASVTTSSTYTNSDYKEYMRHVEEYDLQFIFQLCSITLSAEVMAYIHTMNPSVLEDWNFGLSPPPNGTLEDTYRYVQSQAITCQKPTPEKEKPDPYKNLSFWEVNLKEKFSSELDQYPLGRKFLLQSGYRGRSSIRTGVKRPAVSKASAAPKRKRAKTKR

The target of assay [2] is T2, HPV18L1 (human papillomavirus type 18, UniProt P06794 62-568).
T2 sequence: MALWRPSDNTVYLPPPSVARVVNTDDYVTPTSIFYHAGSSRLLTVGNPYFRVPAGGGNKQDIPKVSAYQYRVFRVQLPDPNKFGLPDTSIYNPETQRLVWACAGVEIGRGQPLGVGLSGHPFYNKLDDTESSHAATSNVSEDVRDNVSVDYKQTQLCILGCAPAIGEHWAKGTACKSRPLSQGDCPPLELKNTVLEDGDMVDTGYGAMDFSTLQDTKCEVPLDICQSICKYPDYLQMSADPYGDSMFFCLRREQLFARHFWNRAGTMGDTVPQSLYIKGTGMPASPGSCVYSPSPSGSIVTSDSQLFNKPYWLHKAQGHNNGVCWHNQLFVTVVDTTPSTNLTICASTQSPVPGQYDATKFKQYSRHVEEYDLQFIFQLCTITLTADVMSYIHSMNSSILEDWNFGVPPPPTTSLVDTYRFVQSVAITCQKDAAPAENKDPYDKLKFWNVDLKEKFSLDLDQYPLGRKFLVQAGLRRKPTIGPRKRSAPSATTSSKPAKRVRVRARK

Assay [3] concerns the target T3, HPV58L1 (human papillomavirus type 58, UniProt P26535 27-524).
T3 sequence: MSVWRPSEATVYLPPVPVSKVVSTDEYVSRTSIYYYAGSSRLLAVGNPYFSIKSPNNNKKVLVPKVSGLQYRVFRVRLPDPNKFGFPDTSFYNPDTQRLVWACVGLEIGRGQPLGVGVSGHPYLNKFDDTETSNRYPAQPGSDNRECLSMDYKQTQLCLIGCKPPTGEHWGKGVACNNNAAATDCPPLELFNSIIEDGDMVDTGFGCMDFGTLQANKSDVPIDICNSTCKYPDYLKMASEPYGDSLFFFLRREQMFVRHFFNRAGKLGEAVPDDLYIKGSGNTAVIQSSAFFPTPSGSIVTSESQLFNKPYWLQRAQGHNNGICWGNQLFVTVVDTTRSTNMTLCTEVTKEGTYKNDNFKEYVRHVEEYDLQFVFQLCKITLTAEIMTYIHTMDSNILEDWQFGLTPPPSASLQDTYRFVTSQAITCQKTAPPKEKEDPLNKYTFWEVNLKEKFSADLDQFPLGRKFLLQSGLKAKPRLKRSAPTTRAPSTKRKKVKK

For assay [4], the target named is T4, HPV39L1 (human papillomavirus type 39, UniProt P24838 1-505).
T4 sequence: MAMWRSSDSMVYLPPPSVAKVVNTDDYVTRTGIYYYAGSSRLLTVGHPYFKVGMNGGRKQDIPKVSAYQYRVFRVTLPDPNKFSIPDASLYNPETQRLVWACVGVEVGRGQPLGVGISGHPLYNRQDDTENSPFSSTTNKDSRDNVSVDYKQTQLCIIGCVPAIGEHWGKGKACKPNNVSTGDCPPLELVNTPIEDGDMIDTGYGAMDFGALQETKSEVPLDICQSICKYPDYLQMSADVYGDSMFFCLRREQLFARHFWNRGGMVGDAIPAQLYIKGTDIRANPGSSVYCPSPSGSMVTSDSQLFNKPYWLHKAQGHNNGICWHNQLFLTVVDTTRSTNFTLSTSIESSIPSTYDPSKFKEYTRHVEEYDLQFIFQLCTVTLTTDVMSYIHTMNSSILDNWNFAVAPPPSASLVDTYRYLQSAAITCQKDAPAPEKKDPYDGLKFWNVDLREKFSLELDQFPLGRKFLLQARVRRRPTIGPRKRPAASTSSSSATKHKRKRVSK

Assay [5] concerns the target T5, HPV51L1 (human papillomavirus type 51, UniProt P26536 1-504).
T5 sequence: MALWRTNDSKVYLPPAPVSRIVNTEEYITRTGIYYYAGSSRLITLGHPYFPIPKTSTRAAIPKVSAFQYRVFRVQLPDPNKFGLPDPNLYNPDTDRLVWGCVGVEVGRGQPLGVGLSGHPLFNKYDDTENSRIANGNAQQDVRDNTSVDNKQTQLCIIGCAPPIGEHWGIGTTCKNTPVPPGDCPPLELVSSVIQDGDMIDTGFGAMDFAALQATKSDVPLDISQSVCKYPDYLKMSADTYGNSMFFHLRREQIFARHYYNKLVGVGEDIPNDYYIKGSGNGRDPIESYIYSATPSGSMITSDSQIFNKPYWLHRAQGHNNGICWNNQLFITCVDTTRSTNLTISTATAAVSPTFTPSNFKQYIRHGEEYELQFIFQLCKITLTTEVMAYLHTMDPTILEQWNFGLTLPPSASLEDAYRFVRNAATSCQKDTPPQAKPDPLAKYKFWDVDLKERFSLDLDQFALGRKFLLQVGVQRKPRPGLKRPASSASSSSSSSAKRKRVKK

B1: HPV 59编号为30单克隆抗体 (antibody, V domains shown)
VH: QIQLVQSGPELKKPGETVKISCKASGYTFTDYSMHWVKQAPGKGLKWMGWINTETGEPTYADDFKGRFAFSLETSASTAYLQINNLKIEDTATYFCTRDGYVWYFDVWGAGTTVTVSS
VL: QIVLSQSPAILSASPGEKVTMTCRASSSVNYMHWYQQKPGSSPKPWIYATSNLASGVPARFSGSGSGTSYSLTISRVEAEDAATYYCQQWSSNPIFTFGSGTKLEIK
notes: Mouse hybridoma antibody tested as cell supernatant; also called 59H30
Consider B1, for which the binding result in assay [1], in assay [2], in assay [3], in assay [4] and in assay [5] was “no binding (tested: 原液40μg/ml; 细胞上清1:100)” in each case.
